Measurements taken from patent US20220096653A1, “CONJUGATE COMPRISING LIGAND AND CEACAM5 ANTIBODY FAB FRAGMENT” (ASTELLAS PHARMA INC., priority 2019, published 2022).

T1: CEACAM5 (R&D Systems, 4128-CM-050) (human, UniProt P06731 35-685)
T1 construct: Immobilised on the ELISA plate; also called human CEACAM5
T1 sequence (looked up): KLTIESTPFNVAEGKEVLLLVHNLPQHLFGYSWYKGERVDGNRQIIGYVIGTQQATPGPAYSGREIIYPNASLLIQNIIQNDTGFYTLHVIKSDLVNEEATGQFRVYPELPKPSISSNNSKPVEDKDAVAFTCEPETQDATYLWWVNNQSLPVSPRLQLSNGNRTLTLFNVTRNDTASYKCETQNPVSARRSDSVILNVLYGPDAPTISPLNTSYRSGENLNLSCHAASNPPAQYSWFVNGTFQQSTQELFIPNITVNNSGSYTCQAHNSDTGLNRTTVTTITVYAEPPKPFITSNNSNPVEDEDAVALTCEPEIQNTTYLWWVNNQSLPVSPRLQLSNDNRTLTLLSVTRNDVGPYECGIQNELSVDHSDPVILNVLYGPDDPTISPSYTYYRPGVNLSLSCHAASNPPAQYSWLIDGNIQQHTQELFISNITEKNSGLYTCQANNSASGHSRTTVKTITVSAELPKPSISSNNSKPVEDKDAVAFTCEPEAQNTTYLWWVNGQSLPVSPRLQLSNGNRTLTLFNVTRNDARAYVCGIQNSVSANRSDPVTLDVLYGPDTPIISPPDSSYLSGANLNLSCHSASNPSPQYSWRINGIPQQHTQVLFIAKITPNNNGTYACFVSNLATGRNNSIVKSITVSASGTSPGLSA


target: T1, CEACAM5 (R&D Systems, 4128-CM-050); experiment: ELISA on immobilised CEACAM5, 4-parameter fit, duplicate
Method: Each anti-human CEACAM5 antibody Fab fragment conjugate prepared in Example 2 was subjected to ELISA to evaluate the binding activity thereof to CEACAM5. In the present test, a phosphate buffer (Nacalai Tesque Inc., 0.1 mol/L-Phosphate Buffer Solution (pH 7.2)) prepared to 10 mM by diluting 10-fold with distilled water was used as a solvent for an antigen immobilization liquid, and 20×PBS/Tween 20 Buffer (Thermo Fisher Scientific Inc., 28352) diluted 20-fold with distilled water was used as a wash liquid. In addition, for bovine serum albumin (BSA) used in the present test, 30% Bovine Serum Albumin solution (Sigma-Aldrich, Inc., A9576-50ML) was added in an appropriate proportion for use. CEACAM5 (R&D Systems, 4128-CM-050) was diluted with a 10 mM phosphate buffer (pH 7.2) to 0.1 μg/mL, and added to a Nunc MaxiSorp White 384 plate (Nunc, 4603272) at 30 μL per well, and the plate was incubated overnight at 4° C. for immobilization. The CEACAM5 immobilization liquid was removed by reverse centrifugation, and then blocking was carried out by adding a PBS/Tween 20 buffer containing 5.0% BSA. Thereafter, the blocking solution was removed by reverse centrifugation, a solution of each CEACAM5 antibody Fab² fragment conjugate described above or a Fab² fragment having no labeling portion (PB009-01) as a control at about 10000 ng/mL was diluted in 14 steps by 3-fold dilution using a PBS/Tween 20 buffer containing 1.0% BSA, and 30 μL was added per well and incubated at room temperature for 60 minutes. The plate was washed 3 times with a PBS/Tween 20 buffer, and Horseradish Peroxidase (HRP)-labeled goat anti-human IgG (H+L chain) antibody (MBL Life Sciences, 206) diluted 1000-fold using a PBS/Tween 20 buffer containing 5.0% BSA was added at 30 μL per well and incubated at room temperature for 30 minutes. The plate was washed 3 times with a PBS/Tween 20 buffer, and ECL Prime Western Blotting DETECTION Reagent (GE Healthcare, RPN2232) as a substrate was added at 30 μL per well. The substrate was incubated at room temperature for 15 minutes, and then a signal value thereof was measured using an Envision counter (PerkinElmer, Inc.).
The test for each antibody was carried out in duplicate, and an EC₅₀ value was calculated using a 4-parameter logistic curve model.

| Binder | EC50 |
| --- | --- |
| (Y-S1-X)p-Fab^2 with Y Gd/DOTA, S1 -NH-(CH2CH2O)3-CH-C(═O)-NH-CH2-(1,3-Ph)-C(═O)-, X -Gly-Lys*-C(═S)-NH-(1,4-Ph)-NH-C(═S)- (Fab, V domains shown, labeling may sit on this chain; sites not stated; labeling portion (MW 1259) on amino groups of the Fab, sites and chain not stated; 1-3 per Fab by MS, also called Ex-No 44; conjugate 44) VH: EVQLVESGGGLVQPGGSLRLSCAASGFNIRDTYMHWVRQAPGKGLEWVARIDPANGNSRYVPKFQGRFTISADTSRNTAYLQMNSLRAEDTAVYYCAPFGYYVSDYAMAYWGQGTLVTVSS VL: DIQLTQSPSSLSASVGDRVTITCRAGESVDIFGVGFLHWYQQKPGKAPKLLIYRASNLESGIPSRFSGSGSRTDFTLTISSLQPEDFATYYCQQTNEDPYTFGQGTKVEIKR | 0.29 nM |
| (Y-S1-X)p-Fab^2 with Y Gd/4arm-DOTA, S1 -CH2-(1,4-Ph)-NH-C(═S)-, X -Gly-(naph-Ala)-Lys*-Z2(#N)- (Fab, V domains shown, labeling may sit on this chain; sites not stated; labeling portion (MW 1187) on amino groups of the Fab, sites and chain not stated; 1-2 per Fab by MS, also called Ex-No 55; conjugate 55) VH: EVQLVESGGGLVQPGGSLRLSCAASGFNIRDTYMHWVRQAPGKGLEWVARIDPANGNSRYVPKFQGRFTISADTSRNTAYLQMNSLRAEDTAVYYCAPFGYYVSDYAMAYWGQGTLVTVSS VL: DIQLTQSPSSLSASVGDRVTITCRAGESVDIFGVGFLHWYQQKPGKAPKLLIYRASNLESGIPSRFSGSGSRTDFTLTISSLQPEDFATYYCQQTNEDPYTFGQGTKVEIKR | 0.26 nM |
| (Y-S1-X)p-Fab^2 with Y Gd/4arm-DOTA, S1 spacer (n), X -Met-Gly-Lys*-Z2(#N)- (Fab, V domains shown, labeling may sit on this chain; sites not stated; labeling portion (MW 1244) on amino groups of the Fab, sites and chain not stated; 1 per Fab by MS, also called Ex-No 58; conjugate 58) VH: EVQLVESGGGLVQPGGSLRLSCAASGFNIRDTYMHWVRQAPGKGLEWVARIDPANGNSRYVPKFQGRFTISADTSRNTAYLQMNSLRAEDTAVYYCAPFGYYVSDYAMAYWGQGTLVTVSS VL: DIQLTQSPSSLSASVGDRVTITCRAGESVDIFGVGFLHWYQQKPGKAPKLLIYRASNLESGIPSRFSGSGSRTDFTLTISSLQPEDFATYYCQQTNEDPYTFGQGTKVEIKR | 0.28 nM |

Continued by falling EC50, values first:

| EC50 | Binder |
| --- | --- |
| 0.26 nM | (Y-S1-X)p-Fab^2 with Y Gd/4arm-DOTA, S1 -CH2-(1,4-Ph)-NH-C(═S)-, X -Gly-Tyr-Lys*-Z2(#N)- (Fab, V domains shown, labeling may sit on this chain; sites not stated; labeling portion (MW 1153) on amino groups of the Fab, sites and chain not stated; 1-2 per Fab by MS, also called Ex-No 56; conjugate 56) VH: EVQLVESGGGLVQPGGSLRLSCAASGFNIRDTYMHWVRQAPGKGLEWVARIDPANGNSRYVPKFQGRFTISADTSRNTAYLQMNSLRAEDTAVYYCAPFGYYVSDYAMAYWGQGTLVTVSS VL: DIQLTQSPSSLSASVGDRVTITCRAGESVDIFGVGFLHWYQQKPGKAPKLLIYRASNLESGIPSRFSGSGSRTDFTLTISSLQPEDFATYYCQQTNEDPYTFGQGTKVEIKR |
| 0.23 nM | (Y-S1-X)p-Fab^2 with Y Gd/DOTA, S1 spacer (h), X -Met-Gly-Lys*-Z2(#N)- (Fab, V domains shown, labeling may sit on this chain; sites not stated; labeling portion (MW 1090) on amino groups of the Fab, sites and chain not stated; 1-2 per Fab by MS, also called Ex-No 43; conjugate 43) VH: EVQLVESGGGLVQPGGSLRLSCAASGFNIRDTYMHWVRQAPGKGLEWVARIDPANGNSRYVPKFQGRFTISADTSRNTAYLQMNSLRAEDTAVYYCAPFGYYVSDYAMAYWGQGTLVTVSS VL: DIQLTQSPSSLSASVGDRVTITCRAGESVDIFGVGFLHWYQQKPGKAPKLLIYRASNLESGIPSRFSGSGSRTDFTLTISSLQPEDFATYYCQQTNEDPYTFGQGTKVEIKR |
| 0.22 nM | [Gd/4arm-DOTA-CH2-(1,4-Ph)-NH-C(═S)-NH-CH2-(1,3-Ph)-C(═O)-Met-Gly-Lys*-Z2(#S)]p-Fab^2 (Fab, V domains shown, labeling may sit on this chain; sites not stated; labeling portion (MW 1355) bound via 2-iminothiolane-treated amino groups of the Fab, sites and chain not stated; 1-2 per Fab by MS, also called Ex-No 40; Conjugate No. 40) VH: EVQLVESGGGLVQPGGSLRLSCAASGFNIRDTYMHWVRQAPGKGLEWVARIDPANGNSRYVPKFQGRFTISADTSRNTAYLQMNSLRAEDTAVYYCAPFGYYVSDYAMAYWGQGTLVTVSS VL: DIQLTQSPSSLSASVGDRVTITCRAGESVDIFGVGFLHWYQQKPGKAPKLLIYRASNLESGIPSRFSGSGSRTDFTLTISSLQPEDFATYYCQQTNEDPYTFGQGTKVEIKR |
| 0.21 nM | (Y-S1-X)p-Fab^2 with Y Gd/DOTA, S1 -NH-(CH2CH2O)3-CH2-C(═O)-, X -Met-Gly-Lys*-Z2(#N)- (Fab, V domains shown, labeling may sit on this chain; sites not stated; labeling portion (MW 1145) on amino groups of the Fab, sites and chain not stated; 1-4 per Fab by MS, also called Ex-No 41; conjugate 41) VH: EVQLVESGGGLVQPGGSLRLSCAASGFNIRDTYMHWVRQAPGKGLEWVARIDPANGNSRYVPKFQGRFTISADTSRNTAYLQMNSLRAEDTAVYYCAPFGYYVSDYAMAYWGQGTLVTVSS VL: DIQLTQSPSSLSASVGDRVTITCRAGESVDIFGVGFLHWYQQKPGKAPKLLIYRASNLESGIPSRFSGSGSRTDFTLTISSLQPEDFATYYCQQTNEDPYTFGQGTKVEIKR |
| 0.2 nM | (Y-S1-X)p-Fab^2 with Y Gd/DOTA, S1 -NH-(CH2CH2O)3-CH2-C(═O)-NH-CH2-(1,3-Ph)-C(═O)-, X -Gly-Tyr*-CH-C(═O)-NH-(CH2)2-Z1(#S) (Fab, V domains shown, labeling may sit on this chain; sites not stated; labeling portion (MW 1384) on amino groups of the Fab, sites and chain not stated; 1-3 per Fab by MS, also called Ex-No 39; conjugate 39) VH: EVQLVESGGGLVQPGGSLRLSCAASGFNIRDTYMHWVRQAPGKGLEWVARIDPANGNSRYVPKFQGRFTISADTSRNTAYLQMNSLRAEDTAVYYCAPFGYYVSDYAMAYWGQGTLVTVSS VL: DIQLTQSPSSLSASVGDRVTITCRAGESVDIFGVGFLHWYQQKPGKAPKLLIYRASNLESGIPSRFSGSGSRTDFTLTISSLQPEDFATYYCQQTNEDPYTFGQGTKVEIKR |
